The source of these data is article PMC9540186 (The Plant Journal, 2022).

The data set concerns the molecule itself. As to the kind of experiment: SDS-PAGE of non-boiled extracts with Western blot.

B1: GFP‐NtUVR8 fusion protein (full‐length Nicotiana tabacum UVR8) (receptor, UniProt A0A1S4AB85 1-441, looked up)
chain: MAADGSSERAVSRKVLLISAGASHSVALLSANVVCSWGRGEDGQLGLGDAEDRFSPTQVSALDEQQIVSVTCGADHATAYSEALKQVYSWGWGDFGRLGHGNSSDLFTPQPIKALHGICIKQIACGDSHCLAVTMEGEVQSWGRNQNGQLGLGTTEDSLVPQKIEAFKGIPVKMVAAGAEHTAAVTEDGELYGWGWGRYGNLGLGDRNDRLVPVKVSATVGEKMFMVACGWRHTICVSSSGSLYTYGWSKYGQLGHGDFEDHLFPHKVQALHDSFTSQISGGWRHTMALTADGELYGWGWNKFGQVGVGDNVDHCSPVQVKFPHDQKVILISCGWRHTLAVTERQNVFSWGRGTNGQLGHGESVDRNVPRIIEALSVDGSSGQQIGSSTSDPSAAEKSWVSPTERYAVVPNENVPKQTVTSVKGNGNDVNVPENDVKRIRL
As for B1, the “stoichiometry N” value is 2.
